Tests used:
[1] = target: T1, Human KIR3DL3 (human, UniProt Q8N743 26-410); test: flow cytometry, KIR3DL3-transfected 300.19 cells
T1 construct: also called Killer cell immunoglobulin-like receptor 3DL3

[2] = target: T2, KIR3DL1 (UniProt P43629 22-444, limits assumed); test: HEK293 cell microarray
T2 construct: whole, on cells
Procedure: (§1) Replicate microarray slides expressing a complete KIR family cDNA panel were fixed and blocked with buffer containing PBS/0.5% BSA and incubated for 1 hour at room temperature with individual KIR3DL3 mAb hybridoma supernatants at 1:5, 1:25 and 1:250 dilutions in PBS/0.1% BSA. Cell arrays were washed with PBS and incubated for 1 hour at room temperature in PBS/0.1% BSA containing AF647-conjugated goat anti-mouse IgG (H+L) (Life Technologies, A21235). Slides were washed with PBS, dried, and imaged for ZsGreen1 and AF647 fluorescence.
as §1, with “In Table 4, replicate” for “Replicate”, “the” for “a complete”, “panel (as in FIG. 1A, FIG. 2B, and FIG. 2C)” for “panel”

[3] = target: T3, KIR3DS1 (UniProt Q14943 22-382, limits assumed); test: HEK293 cell microarray
T3 construct: whole, on cells
Procedure: as §1
as §1, with “In Table 4, replicate” for “Replicate”, “the” for “a complete”, “panel (as in FIG. 1A, FIG. 2B, and FIG. 2C)” for “panel”

[4] = target: T4, KIR2DL1 (UniProt P43626 22-348, limits assumed); test: HEK293 cell microarray
T4 construct: whole, on cells
Procedure: as §1
as §1, with “In Table 4, replicate” for “Replicate”, “the” for “a complete”, “panel (as in FIG. 1A, FIG. 2B, and FIG. 2C)” for “panel”

[5] = target: T5, KIR2DL5B (UniProt Q8NHK3 22-375, limits assumed); test: HEK293 cell microarray
T5 construct: whole, on cells
Procedure: as §1
as §1, with “In Table 4, replicate” for “Replicate”, “the” for “a complete”, “panel (as in FIG. 1A, FIG. 2B, and FIG. 2C)” for “panel”

[6] = target: T6, KIR2DS2 (UniProt P43631 22-304, limits assumed); test: HEK293 cell microarray
T6 construct: whole, on cells
Procedure: as §1
as §1, with “In Table 4, replicate” for “Replicate”, “the” for “a complete”, “panel (as in FIG. 1A, FIG. 2B, and FIG. 2C)” for “panel”

[7] = target: T7, KIR2DL2 (UniProt P43627 22-348, limits assumed); test: HEK293 cell microarray
T7 construct: whole, on cells
Procedure: as §1
as §1, with “In Table 4, replicate” for “Replicate”, “the” for “a complete”, “panel (as in FIG. 1A, FIG. 2B, and FIG. 2C)” for “panel”

[8] = target: T8, KIR2DL3 (UniProt P43628 22-341, limits assumed); test: HEK293 cell microarray
T8 construct: whole, on cells
Procedure: as §1
as §1, with “In Table 4, replicate” for “Replicate”, “the” for “a complete”, “panel (as in FIG. 1A, FIG. 2B, and FIG. 2C)” for “panel”

[9] = target: T9, KIR3DL2 (UniProt P43630 22-455, limits assumed); test: HEK293 cell microarray
T9 construct: whole, on cells
Procedure: as §1
as §1, with “In Table 4, replicate” for “Replicate”, “the” for “a complete”, “panel (as in FIG. 1A, FIG. 2B, and FIG. 2C)” for “panel”

[10] = target: T10, KIR2DS5 (UniProt Q14953 22-304, limits assumed); test: HEK293 cell microarray
T10 construct: whole, on cells
Procedure: as §1
as §1, with “In Table 4, replicate” for “Replicate”, “the” for “a complete”, “panel (as in FIG. 1A, FIG. 2B, and FIG. 2C)” for “panel”

[11] = target: T11, KIR2DL4 (UniProt Q99706 22-377, limits assumed); test: HEK293 cell microarray
T11 construct: whole, on cells
Procedure: as §1
as §1, with “In Table 4, replicate” for “Replicate”, “the” for “a complete”, “panel (as in FIG. 1A, FIG. 2B, and FIG. 2C)” for “panel”

[12] = target: T12, KIR2DS1 (UniProt Q14954 22-304, limits assumed); test: HEK293 cell microarray
T12 construct: whole, on cells
Procedure: as §1
as §1, with “In Table 4, replicate” for “Replicate”, “the” for “a complete”, “panel (as in FIG. 1A, FIG. 2B, and FIG. 2C)” for “panel”

[13] = target: T13, KIR2DS3 (UniProt Q14952 22-304, limits assumed); test: HEK293 cell microarray
T13 construct: whole, on cells
Procedure: as §1
as §1, with “In Table 4, replicate” for “Replicate”, “the” for “a complete”, “panel (as in FIG. 1A, FIG. 2B, and FIG. 2C)” for “panel”

[14] = target: T1, Human KIR3DL3; test: cell-based or functional assay
[15] = target: T1, Human KIR3DL3; test: flow cytometry; blockade of HHLA2-mIgG2a binding to KIR3DL3-transfected 300.19 cells
Procedure: (§2) The indicated concentrations of KIR3DL3 mAbs were pre-incubated with KIR3DL3 transfected 300.19 cells for 30 minutes at 4° C. […] EC50 and IC50 analysis were conducted using GraphPad Prism®.

[16] = target: T1, Human KIR3DL3; test: flow cytometry, KIR3DL3-transfected 300.19 cells; remark: listed apart in the source
[17] = target: T14, Human KIR3DL3, Sino Biological Cat#: 16055-H08H (human, UniProt Q8N743 26-322); test: BLI (Octet RED96), antibody captured on the sensor, antigen in solution, 1:1 model
T14 construct: Bought soluble antigen; also called KIR3DL3 (Octet antigen)
Procedure: Binding experiments were performed on Octat Red af 25″° C. The human antibodies were loaded onto Anti-higG Fe Capture biosensors and the mouse antibodies were loaded onto Anti-migG Fe Capture biosensors both for 300 seconds. The ligand loaded sensors were dipped into a 3-fold series dilution (starting at 300 nad) of the antigens (PD-1 and KIR3DL3) for 240 seconds followed by dissociation for 400 seconds. Kinetic constanta were calculated using a monovalent (1:1) binding model Antigen: Haman PD1, Sino Biological Cat #: HPLC-10377-HOSH.

[18] = target: T1, Human KIR3DL3; test: flow cytometry; blockade of HHLA2-mIgG2a binding to KIR3DL3-transfected cells
Procedure: as §2

T1 sequence (Q8N743 26-410 H321N limits assumed): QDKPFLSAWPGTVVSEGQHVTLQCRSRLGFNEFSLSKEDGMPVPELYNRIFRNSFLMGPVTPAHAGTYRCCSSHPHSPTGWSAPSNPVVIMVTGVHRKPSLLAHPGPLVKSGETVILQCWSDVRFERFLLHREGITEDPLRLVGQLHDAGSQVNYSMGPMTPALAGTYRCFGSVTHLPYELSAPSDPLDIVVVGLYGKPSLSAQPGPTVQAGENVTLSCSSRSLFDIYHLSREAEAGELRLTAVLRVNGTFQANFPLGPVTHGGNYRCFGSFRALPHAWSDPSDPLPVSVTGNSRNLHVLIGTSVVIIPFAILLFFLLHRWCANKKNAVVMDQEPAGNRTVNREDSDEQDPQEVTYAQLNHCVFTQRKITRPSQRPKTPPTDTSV
T14 sequence (Q8N743 other isoform, or with tags, fused parts or gaps H08H H08H limits assumed): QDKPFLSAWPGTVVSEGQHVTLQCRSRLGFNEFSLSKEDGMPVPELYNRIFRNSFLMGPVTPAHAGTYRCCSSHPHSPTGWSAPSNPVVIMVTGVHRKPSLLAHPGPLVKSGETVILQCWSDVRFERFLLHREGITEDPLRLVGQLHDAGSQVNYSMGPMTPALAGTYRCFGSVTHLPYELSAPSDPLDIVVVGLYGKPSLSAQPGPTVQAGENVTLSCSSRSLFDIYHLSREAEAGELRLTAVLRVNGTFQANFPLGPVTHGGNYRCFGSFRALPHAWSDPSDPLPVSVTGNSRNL
T5 sequence (Q8NHK3 22-375 limits assumed): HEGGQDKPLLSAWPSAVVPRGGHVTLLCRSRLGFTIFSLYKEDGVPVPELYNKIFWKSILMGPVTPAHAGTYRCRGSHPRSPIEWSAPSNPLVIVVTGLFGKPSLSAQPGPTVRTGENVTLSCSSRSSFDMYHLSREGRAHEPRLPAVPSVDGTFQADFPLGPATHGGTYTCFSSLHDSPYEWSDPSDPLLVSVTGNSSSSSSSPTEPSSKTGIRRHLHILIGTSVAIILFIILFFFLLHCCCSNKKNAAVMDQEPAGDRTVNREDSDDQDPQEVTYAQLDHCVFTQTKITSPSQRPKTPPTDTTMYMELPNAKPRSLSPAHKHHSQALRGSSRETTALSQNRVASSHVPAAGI
T7 sequence (P43627 22-348 limits assumed): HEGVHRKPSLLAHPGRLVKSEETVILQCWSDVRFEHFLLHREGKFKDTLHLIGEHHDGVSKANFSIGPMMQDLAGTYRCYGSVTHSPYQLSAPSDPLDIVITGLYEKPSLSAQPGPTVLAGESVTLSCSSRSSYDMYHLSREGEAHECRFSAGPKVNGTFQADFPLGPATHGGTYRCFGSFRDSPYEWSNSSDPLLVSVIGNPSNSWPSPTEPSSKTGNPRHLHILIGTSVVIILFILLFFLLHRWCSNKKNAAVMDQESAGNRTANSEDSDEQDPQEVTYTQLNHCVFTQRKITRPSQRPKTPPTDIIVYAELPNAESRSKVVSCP
T8 sequence (P43628 22-341 limits assumed): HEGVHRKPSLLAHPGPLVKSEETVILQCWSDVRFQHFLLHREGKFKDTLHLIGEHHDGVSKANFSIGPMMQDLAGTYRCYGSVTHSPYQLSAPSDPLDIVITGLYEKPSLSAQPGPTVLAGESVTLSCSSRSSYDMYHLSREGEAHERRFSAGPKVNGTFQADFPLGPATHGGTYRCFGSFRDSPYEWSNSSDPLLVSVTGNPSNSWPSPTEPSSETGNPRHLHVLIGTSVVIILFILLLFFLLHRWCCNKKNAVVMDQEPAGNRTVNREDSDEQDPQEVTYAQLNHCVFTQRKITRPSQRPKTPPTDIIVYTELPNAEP
T11 sequence (Q99706 22-377 limits assumed): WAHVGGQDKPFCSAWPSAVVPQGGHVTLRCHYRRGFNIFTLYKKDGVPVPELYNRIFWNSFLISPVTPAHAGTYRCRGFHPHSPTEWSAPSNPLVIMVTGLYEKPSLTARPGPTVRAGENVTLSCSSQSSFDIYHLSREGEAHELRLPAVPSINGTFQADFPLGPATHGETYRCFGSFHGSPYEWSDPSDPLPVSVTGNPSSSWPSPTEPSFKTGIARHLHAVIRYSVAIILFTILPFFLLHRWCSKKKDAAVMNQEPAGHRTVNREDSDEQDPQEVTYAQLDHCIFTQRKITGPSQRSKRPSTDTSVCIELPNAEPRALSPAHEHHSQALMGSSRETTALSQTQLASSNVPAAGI
T12 sequence (Q14954 22-304 limits assumed): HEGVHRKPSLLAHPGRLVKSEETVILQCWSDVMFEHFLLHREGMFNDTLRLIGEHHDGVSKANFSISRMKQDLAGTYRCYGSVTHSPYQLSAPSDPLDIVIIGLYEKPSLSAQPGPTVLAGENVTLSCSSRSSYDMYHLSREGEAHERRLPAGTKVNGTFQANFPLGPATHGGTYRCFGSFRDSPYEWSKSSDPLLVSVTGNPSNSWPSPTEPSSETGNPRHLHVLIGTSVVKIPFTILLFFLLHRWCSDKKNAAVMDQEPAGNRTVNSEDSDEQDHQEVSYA
T3 sequence (Q14943 22-382 limits assumed): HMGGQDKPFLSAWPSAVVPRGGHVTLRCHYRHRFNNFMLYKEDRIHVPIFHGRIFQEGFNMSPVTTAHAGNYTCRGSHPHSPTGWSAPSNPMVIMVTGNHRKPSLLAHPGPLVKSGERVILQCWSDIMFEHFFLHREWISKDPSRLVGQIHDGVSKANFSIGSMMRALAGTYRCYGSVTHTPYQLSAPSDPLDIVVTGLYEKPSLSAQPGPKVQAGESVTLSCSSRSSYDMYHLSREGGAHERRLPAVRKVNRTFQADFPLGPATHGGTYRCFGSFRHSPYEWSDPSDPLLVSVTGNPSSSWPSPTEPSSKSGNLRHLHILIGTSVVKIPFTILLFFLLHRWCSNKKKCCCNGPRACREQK
T2 sequence (P43629 22-444 limits assumed): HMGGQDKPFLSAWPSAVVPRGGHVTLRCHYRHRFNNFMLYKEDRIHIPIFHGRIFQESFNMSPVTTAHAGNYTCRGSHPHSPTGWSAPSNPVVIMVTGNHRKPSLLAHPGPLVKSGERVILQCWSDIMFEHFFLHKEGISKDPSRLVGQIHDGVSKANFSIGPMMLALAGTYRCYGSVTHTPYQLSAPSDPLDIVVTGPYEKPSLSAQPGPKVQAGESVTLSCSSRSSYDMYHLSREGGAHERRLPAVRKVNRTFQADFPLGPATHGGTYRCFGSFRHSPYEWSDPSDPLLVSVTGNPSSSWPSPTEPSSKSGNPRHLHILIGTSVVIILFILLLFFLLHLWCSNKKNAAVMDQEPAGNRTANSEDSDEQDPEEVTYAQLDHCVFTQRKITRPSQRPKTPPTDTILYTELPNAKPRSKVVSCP
T9 sequence (P43630 22-455 limits assumed): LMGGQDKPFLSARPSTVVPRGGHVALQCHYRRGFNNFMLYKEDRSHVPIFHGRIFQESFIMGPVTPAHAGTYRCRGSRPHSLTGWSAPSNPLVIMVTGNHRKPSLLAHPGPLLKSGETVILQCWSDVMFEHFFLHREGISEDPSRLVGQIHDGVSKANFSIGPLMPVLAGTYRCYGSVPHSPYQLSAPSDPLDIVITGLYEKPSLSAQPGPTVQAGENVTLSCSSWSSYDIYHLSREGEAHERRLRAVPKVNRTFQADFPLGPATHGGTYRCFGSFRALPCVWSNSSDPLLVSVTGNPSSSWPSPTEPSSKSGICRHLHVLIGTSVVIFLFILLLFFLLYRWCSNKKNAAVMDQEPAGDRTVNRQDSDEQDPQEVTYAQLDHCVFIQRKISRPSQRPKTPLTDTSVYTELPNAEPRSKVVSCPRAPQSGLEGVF
T6 sequence (P43631 22-304 limits assumed): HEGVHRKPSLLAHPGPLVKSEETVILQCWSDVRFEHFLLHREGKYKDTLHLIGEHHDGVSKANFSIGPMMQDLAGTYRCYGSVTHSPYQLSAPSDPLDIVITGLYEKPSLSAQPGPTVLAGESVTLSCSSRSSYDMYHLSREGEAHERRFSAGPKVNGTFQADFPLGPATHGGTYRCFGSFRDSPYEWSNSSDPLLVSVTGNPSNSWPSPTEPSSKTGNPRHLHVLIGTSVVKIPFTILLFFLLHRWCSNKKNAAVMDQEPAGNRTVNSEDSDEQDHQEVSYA
T4 sequence (P43626 22-348 limits assumed): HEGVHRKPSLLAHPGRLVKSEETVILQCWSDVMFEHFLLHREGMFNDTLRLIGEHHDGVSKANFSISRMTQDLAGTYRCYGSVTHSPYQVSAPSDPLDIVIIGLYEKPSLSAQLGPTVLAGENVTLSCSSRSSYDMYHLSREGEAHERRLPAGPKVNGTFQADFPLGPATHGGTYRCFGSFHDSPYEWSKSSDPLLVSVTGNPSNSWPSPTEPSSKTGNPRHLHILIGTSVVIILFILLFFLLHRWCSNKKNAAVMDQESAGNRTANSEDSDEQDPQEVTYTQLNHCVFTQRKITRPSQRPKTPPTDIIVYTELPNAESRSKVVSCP
T10 sequence (Q14953 22-304 limits assumed): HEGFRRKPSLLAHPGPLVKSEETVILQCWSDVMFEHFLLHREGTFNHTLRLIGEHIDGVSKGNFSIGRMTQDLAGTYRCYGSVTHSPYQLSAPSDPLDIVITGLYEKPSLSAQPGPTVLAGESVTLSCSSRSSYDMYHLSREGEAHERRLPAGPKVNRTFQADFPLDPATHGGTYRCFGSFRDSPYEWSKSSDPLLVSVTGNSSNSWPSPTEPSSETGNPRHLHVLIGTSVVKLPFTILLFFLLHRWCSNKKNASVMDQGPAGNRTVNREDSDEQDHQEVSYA
T13 sequence (Q14952 22-304 limits assumed): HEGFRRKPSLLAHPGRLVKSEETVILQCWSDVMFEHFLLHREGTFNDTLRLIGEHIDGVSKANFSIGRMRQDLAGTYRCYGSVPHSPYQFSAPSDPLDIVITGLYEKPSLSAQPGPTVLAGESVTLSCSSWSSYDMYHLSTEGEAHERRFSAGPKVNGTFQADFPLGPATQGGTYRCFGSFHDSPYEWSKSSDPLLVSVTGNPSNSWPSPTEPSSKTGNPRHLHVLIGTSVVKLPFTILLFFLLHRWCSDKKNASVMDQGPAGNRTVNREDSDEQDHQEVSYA

B1: KIR3DL3 mAb 574.2.2D8.6.9 (antibody, IgG2b, V domains shown)
VH: DVQLVESGGGLVQPGGSRKLSCAASGFTFSYFGMHWVRRAPEKGLEWVAFISSDSTTIYYTDTVKGRFTISRDNPKNTLFLQMTSLRSEDTAIYYCARFYDGAMDYWGQGTSVTVST
VL: DIVMTQSQKFMSTSVGDRVSITCKASQSVRTAVAWYQQKPGQSPKVLIYLASNRHTGVPDRFTGSGSGTDFTLTISNVQSEDLADYFCLQHWNYPLTFGAGTKLELK
notes: Mouse hybridoma antibody, IgG2b; also called AVS-3702
B1 was tested, and the Kd [1] was 0.46 µg/mL, the binding result [2] was “no binding (tested: supernatant 1:5, 1:25, 1:250)” and the binding result [3] was “no binding (tested: supernatant 1:5, 1:25, 1:250)”. B1: no binding (tested: supernatant 1:5, 1:25, 1:250) [4]; no binding (tested: supernatant 1:5, 1:25, 1:250) [5]; no binding (tested: supernatant 1:5, 1:25, 1:250) [6]. B1: no binding (tested: supernatant 1:5, 1:25, 1:250) [7]; no binding (tested: supernatant 1:5, 1:25, 1:250) [8]; no binding (tested: supernatant 1:5, 1:25, 1:250) [9]. B1: no binding (tested: supernatant 1:5, 1:25, 1:250) [10]; no binding (tested: supernatant 1:5, 1:25, 1:250) [11]; no binding (tested: supernatant 1:5, 1:25, 1:250) [12]. For the same binder, the binding result [13] was “no binding (tested: supernatant 1:5, 1:25, 1:250)”, the “Jurkat IL-2 Luciferase Activation, EC50” value [14] was 1.3 µg/mL and the “Jurkat IL-2 Luciferase, Fold Activation” value [14] was 14.9 fold. It also gave an IC50 [15] of 0.21 µg/mL.

B2: KIR3DL3 mAb 574.2.2F11.2.7.4 (antibody, IgG2b, V domains shown)
VH: DVQLVESGGGLVQPGGSRKLSCAASGFTFSYFGMHWVRRAPEKGLEWVAFISSDSTTIYYTDTVKGRFTISRDNPKNTLFLQMTSLRSEDTAIYYCARFYDGAMDYWGQGTSVTVST
VL: DIVMTQSQKFMSTSVGDRVSITCKASQSVRTAVAWYQQKPGQSPKVLIYLASNRHTGVPDRFTGSGSGTDFTLTISNVQSEDLADYFCLQHWNYPLTFGAGTKLELK
notes: Parental mouse hybridoma antibody, IgG2b; only variable domains given; also called AVS-3703
In the case of B2, the Kd [1] is reported as 0.43 µg/mL, the EC50 [16] is reported as 0.43 µg/mL and the Kd [17] is reported as 0.506 nM. For the same binder, the koff [17] was 0.000118 s⁻¹, the kon [17] was 233000 M⁻¹ s⁻¹ and the binding result [2] was “no binding (tested: supernatant 1:5, 1:25, 1:250)”. B2: no binding (tested: supernatant 1:5, 1:25, 1:250) [3]; no binding (tested: supernatant 1:5, 1:25, 1:250) [4]; no binding (tested: supernatant 1:5, 1:25, 1:250) [5]. B2: no binding (tested: supernatant 1:5, 1:25, 1:250) [6]; no binding (tested: supernatant 1:5, 1:25, 1:250) [7]; no binding (tested: supernatant 1:5, 1:25, 1:250) [8]. B2: no binding (tested: supernatant 1:5, 1:25, 1:250) [9]; no binding (tested: supernatant 1:5, 1:25, 1:250) [10]; no binding (tested: supernatant 1:5, 1:25, 1:250) [11]. For the same binder, the binding result [12] was “no binding (tested: supernatant 1:5, 1:25, 1:250)”, the binding result [13] was “no binding (tested: supernatant 1:5, 1:25, 1:250)” and the “Jurkat IL-2 Luciferase Activation, EC50” value [14] was 1.25 µg/mL. For the same binder, the “Jurkat IL-2 Luciferase, Fold Activation” value [14] was 17.1 fold, the IC50 [15] was 0.16 µg/mL and the IC50 [18] was 0.42 µg/mL.

From patent US20250388702A1 (Dana-Farber, published 2025)
